From article doi:10.1101/2021.06.01.446590 (bioRxiv, 2021)

Experiments:
[1] = target: human parkin, full-length (human, UniProt O60260 1-465); test: ITC
[2] = target: His6-Smt3-Parkin (human, UniProt O60260 1-465, RED-tris-NTA dye bound to the His6 tag); test: MST
Sequence of His6-Smt3-Parkin (O60260 whole entry): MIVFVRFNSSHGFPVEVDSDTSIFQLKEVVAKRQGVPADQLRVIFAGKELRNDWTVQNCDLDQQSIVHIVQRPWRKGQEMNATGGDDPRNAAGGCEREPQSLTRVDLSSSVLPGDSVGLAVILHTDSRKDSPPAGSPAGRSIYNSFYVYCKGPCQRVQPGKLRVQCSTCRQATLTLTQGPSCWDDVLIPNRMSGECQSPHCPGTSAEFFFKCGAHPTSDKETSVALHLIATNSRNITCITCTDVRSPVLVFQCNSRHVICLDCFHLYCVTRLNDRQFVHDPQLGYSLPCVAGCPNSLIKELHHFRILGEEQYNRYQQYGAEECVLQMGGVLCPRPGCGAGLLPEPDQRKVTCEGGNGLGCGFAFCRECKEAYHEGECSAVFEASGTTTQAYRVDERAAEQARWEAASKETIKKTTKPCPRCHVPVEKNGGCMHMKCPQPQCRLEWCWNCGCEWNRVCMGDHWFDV

Sequence of human parkin, full-length (O60260 whole entry): as above

Kd [1] [µM]	Kd [2] [µM]	Binder
> 100		human CISD1 (residues 32-108) (domain or fragment, UniProt Q9NZ45 32-108, looked up) KRFYVKDHRNKAMINLHIQKDNPKIVHAFDMEDLGDKAVYCRCWRSKKFPFCDGAHTKHNEETGDNVGPLIIKKKET
	> 100	Miro1^181-579 (soluble construct of Miro1 containing the EF1-EF2-G2 domains) (domain or fragment, human, UniProt Q8IXI2 181-579, looked up) MKPACIKALTRIFKISDQDNDGTLNDAELNFFQRICFNTPLAPQALEDVKNVVRKHISDGVADSGLTLKGFLFLHTLFIQRGRHETTWTVLRRFGYDDDLDLTPEYLFPLLKIPPDCTTELNHHAYLFLQSTFDKHDLDRDCALSPDELKDLFKVFPYIPWGPDVNNTVCTNERGWITYQGFLSQWTLTTYLDVQRCLEYLGYLGYSILTEQESQASAVTVTRDKKIDLQKKQTQRNVFRCNVIGVKNCGKSGVLQALLGRNLMRQKKIREDHKSYYAINTVYVYGQEKYLLLHDISESEFLTEAEIICDVVCLVYDVSNPKSFEYCARIFKQHFMDSRIPCLIVAAKSDLHEVKQEYSISPTDFCRKHKMPPPQAFTCNTADAPSKDIFVKLTTMAMY
